assay: soluble on expression in E. coli; label from the status in PepcDB or PDB records

Soluble on expression in E. coli, not soluble:
MGSDKIHHHHHHMSDALLNAGRQTLMLELQEASRLPERLGDDFVRAANIIIHCEGKVIVSGIGKSGHIGKKIAATLASTGTPAFFVHPAEALHGDLGMIESRDVMLFISYSGGAKELDLIIPRLEDKSVALLAMTGKLHSPLGRAAKAVLDISVEREACPMHLAPTSSTVNTLMMGDALAMAVMQARGFNEEDFARSHPAGALGARLLNNVHHLMRQGDAIPQVMLATSVMDAMLELSRTGLGLVAVCDEQHVVKGVFTDGDLRRWLVGGGALTTPVSEAMTPNGITLQAQSRAIDAKELLMKRKITAAPVVDENGKLTGAINLQDFYQAGII
MGSDKIHHHHHHMSDFHHGVQVVEINDGTRVISTVSTAIIGMVCTASDADAATFPLNKPALITSVQSAIAKAGTKGTLAASLQAIADQSKPVIVVVRVAEGTGDDAEAQTISNIIGGTDESGNYTGLKALLTAEAVTGVKPRILGVPGLDSLEVATALAPICQKLRAFGYISAWDCQNISEAMLYRENFSQRELMVIWPDFLAWDTTANATETVWATARALGLRAKIDQDTGWHKTLSNVGVNGVTGISASVFWDLQESGTDADLLNEAGVTTLIRKDGFRFWGNRCCSDDPLFLFENYTRTAQVIADTMAAGHMWAVDKPITATLIKDIVAGINAKFREMKTAGYIVDATCWFDESANDAATLKAGKLYIDYDYTPVPPLENLTLRQRITDKYLANLVSSVNSN
MGSDKIHHHHHHMSDIKFNSMTHFEAVARLGGVAKAAQELQVTPSAVSQQLRLLEHQLGVRLFQREKRHLSLTIDGERLFQTTTQAFESIREVRNAIVRQRESFQLSLRVSPSFGEKWLAPRLAEFSKDYPSWNLRVDATPNFSDFETEVIDLDLRYGDGGWAGLYSDCVVNDLILPMCSPSYLAELRGLSVDPREQLGHARLIDSVKAYFRWDYWLPRNGIQGARMTYPYRFDRSSMSVQLAKDGAGVVLESTTIAFEDLVSGSLVPVSTEFDVIEFPGYWLVCPSRHMNRRAVRLFSDWVSRVGQRDTDRARQFLSESGLHISFERRPHFGTPDDRAATML
MGSDKIHHHHHHMSDVSPARALGIDFGTSNSTVGWHRPGVESLIALEDGKITLPSVVFFNIEERRPVYGRLALHEYLEGYEGRLMRSLKSLLGSKLIKHDTSVLGSALPFKDLLGMFIGELKKRAEAAAGREFDQVVLGRPVFFVDEDPAADQEAEDTLAEVARKIGFKDVSFQYEPIAAAFDYESSISREELVLIVDIGGGTSDFTLIRLSPERHLVAERQSDILATGGVHIGGTDFDKQLSLQGVMPLFGYGSRMKSGALMPTSYHLNLATWHTINALYSQKSQLALGSMRYDIEDSFGIDRLFKLIEQRAGHWLAMEVEASKIELTEHDSRHIDLRRVEPELTAELTRTLFEEAIEGLLERVRGSVTELLAKAGVSEGQVDTVFFTGGSSGIPALRNSVSAMLPNARHVEGNIFGSIGSGLAIEARKRYGAA
MGSDKIHHHHHHMSEKQQILDYIETNKYSYIEISHRIHERPELGNEEIFASRTLIDRLKEHDFEIETEIAGHATGFIATYDSGLDGPAIGFLAEYDALPGLGHACGHNIIGTASVLGAIGLKQVIDQIGGKVVVLGCPAEEGGENGSAKASYVKAGVIDQIDIALMIHPGNETYKTIDTLAVDVLDVKFYGKSAHASENADEALNALDAMISYFNGVAQLRQHIKKDQRVHGVILDGGKAANIIPDYTHARFYTRAMTRKELDILTEKVNQIARGAAIQTGCDYEFGPIQNGVNEFIKTPKLDDLFAKYAEEVGEAVIDDDFGYGSTDTGNVSHVVPTIHPHIKIGSRNLVGHTHRFREAAASVHGDEALIKGAKIMALMGLELITNQDVYQDIIEEHAHLKGNGK
MGSDKIHHHHHHMSELTQLFPQPLWQWFAQICAIPHPSKHEQALSLHIQQWAKDKGLSVIEDKVGNLIIKKPAFAGMEDRKKVVLQAHLDMVPQKNADKVHNFETDPIEAYIDGDWVKAKGTTLGSDNGIGMASALAILGSDSIKHGPLEVLLTIDEEAGMTGAFGLEAGMLEAEILINTDSEQEGEIYMGCAGGVDGQISLPMSWQSPEQSNSSFNLTLSGLKGGHSGVNIHLGRGNANKLLARFLFDYADDLALELVSFSGGSLRNAIPREASISFMLPPENLTALNQAIADFQALVREELAIADPGMLLTLVEVPAHTKVMGEDSQNTLIDLLHVCPNGVIRMSDEVEGVTETSLNVGVISTHDDSVEILCLIRSLIDSGRSEVTGMITALTHLAGADVEFSGAYPGWKPDTSSPVMAIVRETYNDIYHKDPTVMVIHAGLECGLFKEPYPAMDMVSIGPTIRYPHSPDEMVNITTVGQYWQLLLAVLERIPVRG
MGSDKIHHHHHHMSENEQLSATYELLHADAASPVMISLPHSGTWIPADMRKHLLPTAVLANTDWFLPALYDFLPQTGFTTLINRVNRYVADPNRAVTLDLDHDYRSATIYQRNTFNHPLYARPLPPETLQSRLRTYYWPYRHALTMILKQKQAKFGHAYLIDLHSFAQYPHYPGIKPKTIVLGNDHDRTTSKIFRQTLSAAFVAHDFTVENNFPFRGGDITRYYGHQPNITAIQIELRYDQYIDQRSFREEVLTRHQTDLFCKAQDRLRFLRDFLKQLR
MGSDKIHHHHHHMSESLPPDAQRSPSYRAGVGLKAEHYRTILESQPDIGFFEVHAENYMGAGGPPHRFLSAIRESYPLSLHGVGLSIGADRPLDRDHLQRLKELIARYSPALFSEHLAWSSHDCGFLNDLLPVPYTAESLTRIVDHIDQVQEVLGRQMLLENPSTYLAFEESTYPEIDFIAAVVRRTGCGLLLDVNNVYVASINQQWDPFAYIDEYPLAAVQEIHLAGHAEETDEKARPLLIDSHDRHVADVVWDLYARAIRGTGPIPTLIEWDANIPDWPTLKAEAGRADAVVQAATQPASVDHVTIRSQFDMTRRRLKEAQTL
MGSDKIHHHHHHMSFSGFEQFIGLVANRYGKPGTPHSEEQHSDYEAGTVLLGSETWHIRTARVTPTKPGAFVAFWMRNEQGEICPFDSSEACAGLLIFVQDESNFGVFRFTREQLEQQGITRSTKRPGKRGFRVYPSWSGNLNAQAKKTQAIQTPSFELLQ
MGSDKIHHHHHHMSHHIEDLLNAWSAAPQDDWVLAVVTHVEGSAYRKVGAMMLIHGMGKSVGLVSGGCLEADLRRRAQKVIQTGQAASVCYDATDEADASYQLGCGGLVHLMLLPLCAANHYLHFQALKAALASQGRCHYQLMLTDESLSPGSLGAKVWTSQQALDDAKAGWQLSDFPRPGILQGQSMQGETVRGQSLQDESVQGESASLVVPLREHHRIAIFGGGLDAQPVCQIAQQLGWRVDVVDRRTSYAREYDFVGANIIKLPVSELPKNFWTRLDGAIVMQHNLELDAKALAAIHQHAKQLSYLALLGPGHRRDRVLALAGLEVASFGAYFSAPAGLALGGELPSSIALSILSECHGVLHGAKRVALKEVMA
MGSDKIHHHHHHMSHIIKIFPSNIEFSGREDESILDAALSAGIHLEHSCKAGDCGICESDLLAGEVVDSKGNIFGQGDKILTCCCKPKTALELNAHFFPELAGQTKKIVPCKVNSAVLVSGDVMTLKLRTPPTAKIGFLPGQYINLHYKGVTRSYSIANSDESNGIELHVRNVPNGQMSSLIFGELQENTLMRIEGPCGTFFIRESDRPIIFLAGGTGFAPVKSMVEHLIQGKCRREIYIYWGMQYSKDFYSALPQQWSEQHDNVHYIPVVSGDDAEWGGRKGFVHHAVMDDFDSLEFFDIYACGSPVMIDASKKDFMMKNLSVEHFYSDAFTASNNIEDNL
MGSDKIHHHHHHMSIDFYNQNASSFYASTVEVDSSSLLEQFTPYLPKGGSVLDAGCGSGRDSKRLIELGFHVDAFDASAALATLAQQLLGKPVRVATFMQFTSTLQYDGIWACASLLHVSKASLPDAFAHLASMLKSGGAFYCSFKYGQGEVERDGRSFTHCDEALLAELLTGSPLVIDKVWLTTDLRVGRENEQWLNAVLLKR

Reference: the DeepSol protein solubility set
